Source: patent publication US20230212266A1 (FRED HUTCHINSON CANCER CENTER, published 2023)
Substitutions are numbered along the chain they refer to.

What was measured:
[1] = biological target: T1, SARS-CoV-2 receptor binding domain (RBD) (SARS-CoV-2, UniProt P0DTC2 319-591); test: BLI: mAb on anti-human Fc probe, dipped in the antigen
[2] = biological target: T1, SARS-CoV-2 receptor binding domain (RBD); test: as above; remark: listed apart in the source
[3] = biological target: T1, SARS-CoV-2 receptor binding domain (RBD); test: as above; remark: listed apart in the source
[4] = biological target: T1, SARS-CoV-2 receptor binding domain (RBD); test: BLI, mAb on anti-human Fc probe, antigen in solution
[5] = biological target: T1, SARS-CoV-2 receptor binding domain (RBD); test: as above; remark: listed apart in the source
[6] = biological target: T1, SARS-CoV-2 receptor binding domain (RBD); test: BLI: mAb on anti-human Fc probe, dipped in the antigen; remark: listed apart in the source
[7] = biological target: T1, SARS-CoV-2 receptor binding domain (RBD); test: BLI, mAb on anti-human Fc probe, antigen in solution; remark: listed apart in the source
[8] = biological target: T1, SARS-CoV-2 receptor binding domain (RBD); test: as above; remark: listed apart in the source
[9] = biological target: T1, SARS-CoV-2 receptor binding domain (RBD); test: BLI: mAb on anti-human Fc probe, dipped in the antigen; remark: listed apart in the source
[10] = biological target: T1, SARS-CoV-2 receptor binding domain (RBD); test: as above; remark: listed apart in the source
[11] = biological target: T1, SARS-CoV-2 receptor binding domain (RBD); test: as above; remark: listed apart in the source
[12] = biological target: T1, SARS-CoV-2 receptor binding domain (RBD); test: as above; remark: listed apart in the source
[13] = biological target: T1, SARS-CoV-2 receptor binding domain (RBD); test: as above; remark: listed apart in the source
[14] = biological target: T1, SARS-CoV-2 receptor binding domain (RBD); test: as above; remark: listed apart in the source
[15] = biological target: T1, SARS-CoV-2 receptor binding domain (RBD); test: BLI, mAb on anti-human Fc probe, antigen in solution; remark: listed apart in the source
[16] = biological target: T1, SARS-CoV-2 receptor binding domain (RBD); test: BLI: mAb on anti-human Fc probe, dipped in the antigen; remark: listed apart in the source
[17] = biological target: T1, SARS-CoV-2 receptor binding domain (RBD); test: BLI, mAb on anti-human Fc probe, antigen in solution; remark: listed apart in the source
[18] = biological target: T1, SARS-CoV-2 receptor binding domain (RBD); test: BLI: mAb on anti-human Fc probe, dipped in the antigen; remark: listed apart in the source

B1: CV2-73 (antibody, V domains shown)
VH: QVQLQESGPGLVKPSETLSLTCTVSGGSVSSGSYYWSWIRQPPGKGLEWIGYIYYSGSTNYKYSLKSRVTISVDTSKNQFSLKLSSVTAADTAVYYCAREKGGTEWEFNDAFDIWGQGTMVTVSS
VL: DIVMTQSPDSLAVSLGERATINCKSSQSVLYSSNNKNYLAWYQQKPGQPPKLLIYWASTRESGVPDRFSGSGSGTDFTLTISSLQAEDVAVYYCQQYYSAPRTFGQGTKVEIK
binding result [1]: no binding

B2: CV2-72 (antibody, V domains shown)
VH: EVQLVESGGGLVQPGGSLRLSCAASGFTVSTNYMSWVRQAPGKGLEWVSVIYSGGSTYYVDSVKGRFTISRDNSKNTLYLQMNSLRAEDTAVYYCASTNSGSYSHVFDIWGQGTMVTVSS
VL: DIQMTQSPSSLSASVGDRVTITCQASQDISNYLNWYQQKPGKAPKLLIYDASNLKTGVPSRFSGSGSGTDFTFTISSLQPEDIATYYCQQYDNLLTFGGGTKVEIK
binding result [2]: no binding

B3: CV2-69 (antibody, V domains shown)
VH: EVQLLESGGGLVQPGGSLKLSCAASGFTFNSYAMTWVRQAPGKGLEWLSTISGSGGRTYYADSVKGRFAISRDNSKNTVFLQMSTLRAEDTAVYFCARDFYGLESFYPGIDSWGQGTLVTVSS
VL: SYELTQPSSVSVFPGQTARITCSGDVLEKKYARWFQQKPGQAPLLVIYKDSERPSGIPERFFGSSSGTTVTLTISGAQVEDEADYYCYSAADNNRGVFGGGTKLTVL
binding result [3]: no binding

B4: CV17 (antibody, V domains shown)
VH: not shown
VL: QSALTQPASVSGSPGQSITISCTGTSSDVGSYNLVSWYQQHPGKAPKLMIYEGSKRPSGVSNRFSGSKSGNTASLTISGLQAEDEADYYCCSYAGSSTYVFGTGTKVTVL
notes: expressed as IgG
binding result [4]: no binding

B5: CV21 (antibody, V domains shown)
VH: not shown
VL: EIVLTQSPATLSLSPGERATLSCRASQSVSSYLAWYQQKPGQAPRLLIYDASNRATGIPARFSGSGSGTDFTLTISSLEPEDFAVYYCQQRSNWPLTFGGGTKVEIK
notes: expressed as IgG
binding result [5]: no binding

B6: CV2-70 (antibody, V domains shown)
VH: QVQLVQSGAEVKKPGSSVKVSCKASGGTFSSYAITWVRQAPGQGLEWMGGIIPIFGTANYAQKFQGRLTITADDSTSTAYMELSSLKSEDTAVYYCARFRAYDSSGYGPDYWGQGTLVTVSS
VL: EIVLTQSPATLSLSPGERATLSCRASQSVSSYLAWYQQKPGQAPRLLIYDASNRATGIPARFSGSGSGTDFTLTISSLEPEDFAVYYCQQRSNWPPSITFGQGTRLEIK
binding result [6]: no binding

B7: CV18 (antibody, V domains shown)
VH: QVQLVQSGAEVKKPGASVKVSCKVSGYTLTELSMHWVRQAPGKGLEWMGGFDPEDGETIYAQKFQGRVTMTEDTSTDTAYMELSSLRSEDTAVYYCATTSPIVGAITWFDPWGQGTLVTVSS
VL: QSVLTQPPSVSAAPGQKVTISCSGSSSNIGNNYVSWYQQLPGTAPKLLIYDNNKRPSGIPDRFSGSKSGTSATLGITGLQTGDEADYYCGTWDSSLSAGPVFGGGTKLTVL
notes: expressed as IgG
binding result [7]: no binding

B8: CV22 (antibody, V domains shown)
VH: EVQLVESGGGLVKPGGSLRLSCAASGFTFSSYSMNWVRQAPGKGLEWVSSISSSSSYIYYADSVKGRFTISRDNAKNSLYLQMNSLRAEDTAVYYCARDRESYDILTGYSMEGCFDYWGQGTLVTVSS
VL: QLVLTQSPSASASLGASVKLTCTLSSGHSSYAIAWHQQQPEKGPRYLMKLNSDGSHSKGDGIPDRFSGSSSGAERYLTISSLQSEDEADYYCQTWGTGIRVFGGGTKLTVL
notes: expressed as IgG
binding result [8]: no binding

B9: CV2-64 (antibody, V domains shown)
VH: QLQLQESGPGLVKPSETLSLTCTVSGGSISSSSYYWGWIRQPPGKGLEWIGSIYYSGSTYYNPSLKSRVTISVDTSKNQFSLKLSSVTAADTAVYYCARLSGIFGVVIIPGFFDYWGQGTLVTVSS
VL: not shown
binding result [9]: no binding

B10: CV2-58 (antibody, V domains shown)
VH: QVQLVQSGAEVKKPGSSVKVSCKASGGTFSSYAISWVRQAPGQGLEWMGRIIPILDITNYAQKFQGRVTITADKSTSTAYMELSSLRSEDTAVYYCARGLWRSSIAGLHVPYGMDVWGQGTTVTVSS
VL: QSVLTQPPSVSAAPGQKVTISCSGSSSNIGNNYVSWYQQLPGTAPQLLIYDNNKRPSRIPDRFSGSKSGTSATLGITGLQTGDEAVYYCGTWDSSLSAVVFGGGTKLTVL
binding result [10]: no binding

B11: CV2-59 (antibody, V domains shown)
VH: B7 VH with T99G, S100P, P101T, I102V, V103T, G104T, A105V, I106T, T107N
VL: B10 VL with Q46K, R58G, V86D, V99E, G103T, L107V
binding result [11]: no binding

B12: CV2-60 (antibody, V domains shown)
VH: QVQLVQSGAEVKKPGASVKVSCKASGYNFISYGISWVRQAPGQGLEWMGWISAYNGNTNYAQKLQGRVTMTTDTSTSTAYMELRSLRSDDTAVYYCARVRIFGVVIIVDTAMVLDYWGQGTLVTVSS
VL: B10 VL with Q46K, D51E, R58G, V86D, V99G
binding result [12]: no binding

B13: CV2-74 (antibody, V domains shown)
VH: EVQLVQSGAEVKKPGESLRISCKGSGYSFTSYWISWVRQMPGKGLEWMGRIDPSDSYTNYSPSFQGHVTISADKSISTASLQWSSLKASDTAMYYCARQKRDGTTWAFDYWGQGTLVTASS
VL: not shown
binding result [13]: no binding

B14: CV2-67 (antibody, V domains shown)
VH: QVQLQESGPGLVKPSETLSLTCTVSGGSISSYYWSWIRQPPGKGLEWIGYIYYSGSTNYNPSLKSRVTISVDTSKNQFSLKLSSVTAADTAVYYCAGTYYDFWSGSTNYYGMDVWGQGTTVTVSS
VL: not shown
binding result [14]: no binding

B15: CV2 (antibody, V domains shown)
VH: QVQLVESGGGVVQPGRSLRLSCAASGFTFSSYAMHWVRQAPGKGLEWVAVISYDGSNKYYADSVKGRFTISRDNSKNTLYLQMNSLRAEDTAVYYCARVRGSYYLFDYWGQGTLVTVSS
VL: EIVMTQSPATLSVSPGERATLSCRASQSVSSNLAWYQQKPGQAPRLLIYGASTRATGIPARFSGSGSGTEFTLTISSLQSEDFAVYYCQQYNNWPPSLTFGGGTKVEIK
notes: expressed as IgG
binding result [15]: no binding

B16: CV2-63 (antibody, V domains shown)
VH: QVQLVESGGGVVQPGRSLRLSCAASGFTFSSYAMHWVRQAPGKGLEWVAVISYDGDNKYYADSVKGRFTISRDNSKNTLYLQMNSLRAEDTAVYYCARDPTAVTGPFDYWGQGTLVTVSS
VL: SYELTQPLSVSVALGQTARITCGGNNIGSKNVHWYQQKPGQAPVLVIYRDSNRPSGIPERFSGSNSGNTATLTISRAQAGDEADYFCQVWDSSTVVFGGGTKLTVL
binding result [16]: no binding

B17: CV15 (antibody, V domains shown)
VH: EVQLVESGGGLVQPGGSLRLSCAASGFTFSSYWMSWVRQAPGKGLEWVANIKQDGSEKYYVDSVKGRFTISRDNAKNSLYLQMNSLRAEDTAVYYCARDFNSYQLLWYYYYGMDVWGQGTTVTVSS
VL: QSALTQPRSVSGSPGQSVTISCTGTSSDVGGYNYVSWYQQHPGKAPKLMIYDVSKRPSGVPDRFSGSKSGNTASLTISGLQAEDEADYYCCSYAGSYTWVFGGGTKLTVL
notes: expressed as IgG
binding result [17]: no binding

B18: CV2-62 (antibody, V domains shown)
VH: EVQLVESGGGLVQPGGSLRLSCAASGFTFSSYEMNWVRQAPGKGLEWVSYISSSGSTIYYADSVKGRFTISRDNAKNSLYLQMNSLRAEDTAVYYCARVPRPPWDDFWSGYLYYFDYWGQGTLVTVSS
VL: DIQMTQSPSSLSASVGDRVTITCRASQGISNYLAWYQQKPGKVPKLLIYAASTLQSGVPSRFSGSGSGTDFTLTISSLQPEDVATYYCQKYNSAPPGFTFGPGTKVDIK
binding result [18]: no binding
